Target: T1, IRAK4 (Homo sapiens, UniProt Q9NWZ3)
T1 sequence (Q9NWZ3 1-460): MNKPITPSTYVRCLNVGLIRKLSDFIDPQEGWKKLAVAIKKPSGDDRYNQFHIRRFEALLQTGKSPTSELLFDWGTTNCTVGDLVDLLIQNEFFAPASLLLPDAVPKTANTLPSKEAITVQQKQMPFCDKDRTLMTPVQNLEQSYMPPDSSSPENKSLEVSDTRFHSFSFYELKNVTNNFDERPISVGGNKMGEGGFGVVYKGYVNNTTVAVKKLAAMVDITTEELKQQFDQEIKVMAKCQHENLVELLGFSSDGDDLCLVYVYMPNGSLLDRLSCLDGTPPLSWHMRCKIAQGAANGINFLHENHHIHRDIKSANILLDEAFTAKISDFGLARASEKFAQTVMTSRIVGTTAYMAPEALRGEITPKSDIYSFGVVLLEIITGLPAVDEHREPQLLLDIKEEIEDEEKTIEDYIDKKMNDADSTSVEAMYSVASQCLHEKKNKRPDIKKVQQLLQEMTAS
Experiment: mRNA display affinity selection against IRAK4, NGS abundance
Format: binding
Set-up: acids 1-460; NP_057207.2) was purchased from Carna Biosciences; purchased Carna Biosciences (Kobe, Japan)
Details: Top100 selection hits, NGS

Sequence	Library fraction (IRAK4 selection pulldown (+))	Raw reads (IRAK4 selection pulldown (+))	Library fraction (IRAK4 selection pulldown (-))	Raw reads (IRAK4 selection pulldown (-))
SQRYKRRNYK	0.0009	92	0.00037	49
SQRYRNRNYQ	0.0023	242	0.00064	85
SRLWRRRIFQ	0.0001	10	9e-5	12
SRLWRRRIYH	0.009	985	0.014	1900
STLWNKKIYK	0.0005	54	0.00019	26
STRWKNRIYR	0.004	433	0.003	390
STRWKRRNYT	0.0004	39	0.00016	22
STRWNNRIWR	0.0001	9		
STYRKRRIWY	0.0001	14		
STYWKSRIYT	0.0002	23		
SVCWKRRNCH	0.0002	24	0.00016	22
SVFWNRRIYK	0.0006	68	0.00016	21
SVLWKKRVWQ	0.003	318	0.00139	186
SVLWKRKIHN	0.0012	125	0.001	137
SVLWKRRIAK	0.010	1112	0.011	1441
SVLWKRRIWK	0.033	3569	0.020	2704
SVLWRKRIYR	0.0037	391	0.00143	191
SVRWKHRIYK	0.0003	29	0.00012	16
SVRWKRRDYR	0.0046	492	0.007	903
TADGLILTPWVT	0.0001	15	0.00281	375

— publication PMC10683472, “Deep Learning-Driven Library Design for the De Novo Discovery of Bioactive Thiopeptides” (ACS Central Science, 2023)
